Results on 26 molecules are retold here after patent US20190135918A1 (ICHNOS SCIENCES, published 2019).

Where a chain is given by its changes, count along the chain named. Where two headings read alike, the source gives them in different places.

The Kd is the constant that tells how readily two partners part at equilibrium.

The target of experiment [1] is T1, human CD3 epsilon 1-26_Fc fusion protein (human).
T1 construct: also called human CD3 1-26_Fc fusion protein
Put plainly: SPR, human IgG1 format, graded relative to chimeric SP34; one grade for human and cynomolgus protein. In general terms: In SPR one partner is held on a chip, and binding of the other changes the refractive index at the surface.

The target of experiment [2] is T2, cynomolgus monkey CD3 epsilon 1-26_Fc fusion protein (cynomolgus monkey).
T2 construct: also called cynomolgus CD3 epsilon 1-26 Fc fusion protein
Described as above.

The target in experiment [3] is T3, soluble extracellular region of human CD38 fused to a 6-His-tag (human, UniProt P28907 43-300).
T3 construct: Expressed with the murine VJ2C leader; also called human CD38 protein; human CD38 antigen
Put plainly: SPR.

Experiment [4] deals with T4, human CD3 epsilon on cells (human, UniProt P07766 23-207).
T4 construct: whole, on cells; On cells it stands in the CD3/TCR complex; also called HPB-ALL cells (human CD3 epsilon positive T cell tumour line); CD3 on human T cells
Put plainly: FACS staining of HPB-ALL cells, human IgG1 format, graded relative to chimeric OKT3.
Protocol: (§1) HPB-ALL cells (DSMZ, Braunschweig, Germany, Cat. No: ACC483) were used as CD3 positive cell line for FACS staining. […] After washing, cells were incubated with a 1/200 dilution of anti-Human Fc-PE (EBioscience, Vienna, Austria) for 45 min on ice. Cells were then washed again and resuspended in 200 ul FACS buffer.

The target in experiment [5] is T4, human CD3 epsilon on cells. The experiment is described as above. This is another data set of the same source.
Protocol: as §1
Experiment [6] concerns the target T3, soluble extracellular region of human …. The experiment in a line: SPR, antibody captured on protein G, CD38 injected.

B1: VH1/VL14 (antibody, human IgG1, kappa, V domains shown)
VH: EVQLVESGGGLVQPGGSLRLSCAASGFTFNTYAMNWVRQAPGKGLEWVARIRSKYNNYATYYADSVKGRFTISRDDSKNTLYLQMNSLRAEDTAVYYCVRHGNFGNSYVSWFAYWGQGTTVTVSS
VL: EAVVTQSPATLSVSPGERATLSCRSSTGAVTTSNYANWVQEKPGQAFRLLIGGANKRAPGVPARFSGSLSGDEATLTISSLQSEDFAVYFCALWYSNLWVFGQGTKLEIKR
notes: IgG1; also called humanized SP34 VH1/VL14 antibody; copies: 2 + 2
Consider B1, for which the binding result in experiment [1] and in experiment [2] was “no binding (tested: not printed)” in each case.

B2: VH1/VL19 (antibody, human IgG1, kappa, V domains shown)
VH: B1 VH
VL: B1 VL with A2I, L49G, D72T, F90Y
notes: IgG1; also called humanized SP34 VH1/VL19 antibody; copies: 2 + 2
With B2, the binding result in experiment [1] and in experiment [2] was “binds” in each case.

B3: humanized SP34 prototype antibody VH1/VL1 (antibody, human IgG1, kappa)
VH: not shown
VL: EAVVTQSPATLSVSPGERATLSCRSSTGAVTTSNYANWVQEKPGQAFRGLIGGANKRAPGVPARFSGSLSGDEATLTISSLQSEDFAVYFCQLWYSNLWVFGQGTKLEIKRTVAAPSVFIFPPSDEQLKSGTASVVCLLNNFYPREAKVQWKVDNALQSGNSQESVTEQDSKDSTYSLSSTLTLSKADYEKHKVYACEVTHQGLSSPVTKSFNRGEC
notes: Human IgG1; Printed as 'variable heavy chain and light chain'
As to B3, the binding result in experiment [1] and in experiment [2] was “binds” throughout.

B4: VH1/VL22 (antibody, human IgG1, kappa, V domains shown)
VH: B1 VH
VL: B1 VL with A2I, E41Q, L49G, F90Y
notes: IgG1; also called humanized SP34 VH1/VL22 antibody; copies: 2 + 2
Consider B4, for which the binding result in experiment [1] and in experiment [2] was “binds” in each case.

B5: VH1/VL21 (antibody, human IgG1, kappa)
heavy: not shown
light: B3 VL with A2I, F90Y, Q92A
notes: IgG1 format of the variable domains of m38; also called humanized SP34 VH1/VL21 antibody (IgG1 format); H1L21 IgG1; copies: 2 + 2
With B5, the binding result in experiment [1] and in experiment [2] was “binds” in each case.

B6: VH1/VL15 (antibody, human IgG1, kappa, V domains shown)
VH: B1 VH
VL: B1 VL with E41Q, L49G
notes: IgG1; also called humanized SP34 VH1/VL15 antibody; copies: 2 + 2
As to B6, the binding result in experiment [1] and in experiment [2] was “binds” throughout.

B7: VH1/VL18 (antibody, human IgG1, kappa)
heavy: not shown
light: B3 VL with A2I, Q92A, Q103G
notes: IgG1; also called humanized SP34 VH1/VL18 antibody; copies: 2 + 2
On to B7, for which the binding result in experiment [1] and in experiment [2] was “binds” each time.

B8: VH1/VL16 (antibody, human IgG1, kappa)
heavy: not shown
light: B3 VL with A2I, D72T, Q92A
notes: IgG1; also called humanized SP34 VH1/VL16 antibody; copies: 2 + 2
Consider B8, for which the binding result in experiment [1] and in experiment [2] was “binds” in each case.

B9: VH1/VL17 (antibody, human IgG1, kappa)
heavy: not shown
light: B3 VL with A2I, S25A, Q92A
notes: IgG1; also called humanized SP34 VH1/VL17 antibody; copies: 2 + 2
Regarding B9, the binding result in experiment [1] and in experiment [2] was “binds” in each case.

B10: first humanized 9G7 antibody prototype (best-fit approach, post CDR grafting) (antibody, human IgG1, kappa, V domains shown)
VH: QVTLKESGPTLVKPTQTLTLTCTFSGLSLSTSGKGVGWIRQPPGKALEWLAHIWWDDDKRYNPALKSRLTITKDTSKNQVVLTMTNMDPVDTATYYCARIELGRSYVMDYWGQGTLVTVSS
VL: DIQMTQSPSSLSASVGDRVTITCQASQDVITSVAWFQQKPGKAPKLLIYSASYRYTGVPSRFSGSGSGTDFTFTISSLQPEDIATYYCQQHYTIPLTFGQGTKLEIKR
notes: Human IgG1 isotype; also called first antibody prototype; first humanized prototype
With B10, in experiment [3], the Kd worked out at 1 nM and the “fold lower binding than the mouse parental antibody” value amounted to 3 fold.

B11: VH5/VL3 (antibody, human IgG1, kappa, V domains shown)
VH: EVQLVESGGGLVQPGGSLRLSCAASGYTFTRYTMHWVRQAPGKGLEWVGYINPSRGYTRYADSVKGRFTLSTDKSKNTAYLQMNSLRAEDTAVYYCARYYDDHYCLDYWGQGTLVTVSS
VL: DIQLTQSPSSLSASVGDRVTITCRASSSVSYVAWYQQKPGKAPKLLIYDTSKLYSGVPSRFSGSRSGTDYTLTISSLQPEDFATYYCQQWSSNPPTFGQGTKVEIKR
notes: human IgG1; also called humanized OKT3 VH5/VL3 antibody; copies: 2 + 2
For B11, the binding result in experiment [4] is listed as “binds”.

B12: VH9/VL8 (antibody, human IgG1, kappa, V domains shown)
VH: B11 VH with V48I, R59Y, G66S
VL: B11 VL with L45R, L46W, R65G
notes: human IgG1; also called humanized OKT3 VH9/VL8 antibody; copies: 2 + 2
Consider B12, for which, in experiment [5], the binding result is given as “binds”.

B13: humanized OKT3 VH11/VL4 antibody (antibody, human IgG1, V domains shown)
VH: B11 VH with V48I, R59Y, N84S
VL: B11 VL with L45R, L46W
notes: Human IgG1; copies: 2 + 2
Turning to B13, the binding result in experiment [5] is given as “binds”.

B14: VH6/VL5 (antibody, human IgG1, kappa, V domains shown)
VH: B11 VH with V48I
VL: B11 VL with V32M, A33N
notes: human IgG1; also called humanized OKT3 VH6/VL5 antibody; copies: 2 + 2
B14: the binding result in experiment [4] is reported as “binds”.

B15: VH10/VL4 (antibody, human IgG1, kappa, V domains shown)
VH: B11 VH with V48I, R59Y, G66S, F68A
VL: B11 VL with L45R, L46W
notes: human IgG1; also called humanized OKT3 VH10/VL4 antibody; copies: 2 + 2
On to B15, for which the binding result in experiment [5] is on record as “binds”.

B16: VH6/VL8 (antibody, human IgG1, kappa, V domains shown)
VH: B11 VH with V48I
VL: B11 VL with L45R, L46W, R65G
notes: human IgG1; also called humanized OKT3 VH6/VL8 antibody; copies: 2 + 2
In the case of B16, in experiment [5], the binding result was “binds”.

B17: VH6/VL4 (antibody, human IgG1, kappa, V domains shown)
VH: B11 VH with V48I
VL: B11 VL with L45R, L46W
notes: human IgG1; also called humanized OKT3 VH6/VL4 antibody; copies: 2 + 2
B17: the binding result in experiment [4] is on record as “binds”.

B18: VH7/VL4 (antibody, human IgG1, kappa, V domains shown)
VH: B11 VH with R59N
VL: B11 VL with L45R, L46W
notes: human IgG1; also called humanized OKT3 VH7/VL4 antibody; copies: 2 + 2
For the molecule B18, the binding result in experiment [5] was “binds”.

B19: humanized OKT3 VH8/VL4 antibody (antibody, human IgG1, V domains shown)
VH: B11 VH with V48I, R59Y
VL: B11 VL with L45R, L46W
notes: Human IgG1; copies: 2 + 2
For B19, the binding result in experiment [5] was “binds”.

B20: VH5/VL4 (antibody, human IgG1, kappa, V domains shown)
VH: B11 VH
VL: B11 VL with L45R, L46W
notes: human IgG1; also called humanized OKT3 VH5/VL4 antibody; copies: 2 + 2
Consider B20, for which the binding result in experiment [4] is reported as “binds”.

B21: VH5/VL6 (antibody, human IgG1, kappa, V domains shown)
VH: B11 VH
VL: B11 VL with L45R, L46W, P95F
notes: human IgG1; also called humanized OKT3 VH5/VL6 antibody; copies: 2 + 2
For B21, in experiment [4], the binding result is reported as “binds”.

B22: VH10/VL8 (antibody, human IgG1, kappa, V domains shown)
VH: B11 VH with V48I, R59Y, G66S, F68A
VL: B11 VL with L45R, L46W, R65G
notes: human IgG1; also called humanized OKT3 VH10/VL8 antibody; copies: 2 + 2
Consider B22, for which, in experiment [5], the binding result was “binds”.

B23: VH6/VL6 (antibody, human IgG1, kappa, V domains shown)
VH: B11 VH with V48I
VL: B11 VL with L45R, L46W, P95F
notes: human IgG1; also called humanized OKT3 VH6/VL6 antibody; copies: 2 + 2
As for B23, the binding result in experiment [4] is “binds”.

B24: humanized HB-7 best-fit antibody (antibody, human IgG1, kappa, V domains shown)
VH: QVQLQESGPGLVKPSETLSLTCTVSGFSLISYGVHWVRQPPGKGLEWLGVIWRGGSTDYNAAFMSRLTISKDNSKNQVSLKLSSVTAADTAVYFCAKTLITTGYAMDYWGQGTLVTVSS
VL: DIQLTQSPSSLSASVGDRVTITCRASEDIYNRLAWYQQKPGKAPKLLISGATSLETGVPSRFSGSGSGKDYTLTISSLQPEDFATYYCQQYWSTPTFGQGTKLEIKR
notes: Human IgG1 format
B24 came in with a Kd in experiment [6] of 3.6 nM.

B25: chimeric HB-7 antibody (antibody, human IgG1, kappa, V domains shown)
VH: KVQLQESGPSLVQPSQRLSITCTVSGFSLISYGVHWVRQSPGKGLEWLGVIWRGGSTDYNAAFMSRLSITKDNSKSQVFFKMNSLQADDTAIYFCAKTLITTGYAMDYWGQGTTVTVSS
VL: DIELTQSPSSFSVSLGDRVTITCKASEDIYNRLAWYQQKPGNAPRLLISGATSLETGVPSRFSGSGSGKDYTLSITSLQTEDVATYYCQQYWSTPTFGGGTKLEIKR
In experiment [6], B25 displayed a Kd of 2.5 nM.

B26: VH1/VL3 (antibody)
heavy: not shown
light: EAVVTQSATLSVSPGERATLSCRSSTGAVTTSNYANWVQEKPGQAFRGLIGGANKRAPGVPARFSGSLSGDEATLTISSLQSEDFAVYFCQLWYSNLWVFGQGTKLEIKRTVAAPSVFIFPPSDEQLKSGTASVVCLLNNFYPREAKVQWKVDNALQSGNSQESVTEQDSKDSTYSLSSTLTLSKADYEKHKVYACEVTHQGLSSPVTKSFNRGEC
notes: IgG1; SP34 series; also called humanized SP34 VH1/VL3 antibody; copies: 2 + 2
Take B26: the binding result in experiment [1] and in experiment [2] was “no binding (tested: not printed)” each time.
